One block for each binder: values may come before it.
Legend:
Experiment in all cases: holdup assay
Design in all cases: key: below the threshold = too weak to quantify, mostly under pKd 3.1 to 4
[1] = biological target: DLG1_3, Q12959
[2] = biological target: DLG2_2, Q15700
[3] = biological target: T1, RHPN1, Q8TCX5
T1 sequence (Q8TCX5 508-602, limits assumed, looked up): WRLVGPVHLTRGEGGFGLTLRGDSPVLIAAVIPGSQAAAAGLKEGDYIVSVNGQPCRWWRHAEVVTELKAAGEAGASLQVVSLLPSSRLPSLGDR

[4] = biological target: GRIP2_3, Q9C0E4
GRIP2_3, Q9C0E4, sequence (Q9C0E4 238-339): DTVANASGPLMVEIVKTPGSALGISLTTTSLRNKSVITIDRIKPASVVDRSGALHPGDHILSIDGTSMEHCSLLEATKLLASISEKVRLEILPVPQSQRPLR

[5] = biological target: T2, TIAM2, Q8IVF5
T2 sequence (Q8IVF5 885-986, limits assumed, looked up): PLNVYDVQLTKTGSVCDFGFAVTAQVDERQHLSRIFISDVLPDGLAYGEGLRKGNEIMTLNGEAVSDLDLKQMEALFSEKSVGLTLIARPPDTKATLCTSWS

[6] = biological target: T3, DFNB31_3, Q9P202
T3 sequence (Q9P202 811-907, limits assumed, looked up): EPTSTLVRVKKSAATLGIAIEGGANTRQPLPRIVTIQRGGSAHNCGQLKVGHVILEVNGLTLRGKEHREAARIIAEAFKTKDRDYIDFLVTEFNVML

[7] = biological target: PDZRN4_1, Q6ZMN7
PDZRN4_1, Q6ZMN7, sequence (Q6ZMN7 213-318): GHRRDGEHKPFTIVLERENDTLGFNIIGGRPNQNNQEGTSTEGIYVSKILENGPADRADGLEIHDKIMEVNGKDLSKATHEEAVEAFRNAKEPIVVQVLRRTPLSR

[8] = biological target: DLG5_1, Q8TDM6
DLG5_1, Q8TDM6, sequence (Q8TDM6 617-713): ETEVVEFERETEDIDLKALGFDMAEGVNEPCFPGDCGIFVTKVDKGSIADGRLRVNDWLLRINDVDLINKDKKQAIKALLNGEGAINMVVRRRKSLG

[9] = biological target: T4, SNTG1, Q9NSN8
T4 sequence (Q9NSN8 52-150, limits assumed, looked up): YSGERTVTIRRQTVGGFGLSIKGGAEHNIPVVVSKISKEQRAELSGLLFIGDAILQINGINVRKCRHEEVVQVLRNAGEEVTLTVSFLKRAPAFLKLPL

[10] = biological target: T5, SNTG2, Q9NY99
T5 sequence (Q9NY99 68-166, limits assumed, looked up): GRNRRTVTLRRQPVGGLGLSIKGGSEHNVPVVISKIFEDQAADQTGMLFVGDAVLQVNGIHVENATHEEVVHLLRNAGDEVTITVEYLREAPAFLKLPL

[11] = biological target: LIMK2, P53671
LIMK2, P53671, sequence (P53671 143-248): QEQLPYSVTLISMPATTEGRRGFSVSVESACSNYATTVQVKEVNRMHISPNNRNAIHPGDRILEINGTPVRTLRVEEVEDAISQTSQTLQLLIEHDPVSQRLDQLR

[12] = biological target: GRIP2_4, Q9C0E4
GRIP2_4, Q9C0E4, sequence (Q9C0E4 446-548): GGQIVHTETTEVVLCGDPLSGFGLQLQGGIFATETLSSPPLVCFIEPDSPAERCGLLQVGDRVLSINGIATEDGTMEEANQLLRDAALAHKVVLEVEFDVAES

[13] = biological target: T6, RAPGEF6, Q8TEU7
T6 sequence (Q8TEU7 525-625, limits assumed, looked up): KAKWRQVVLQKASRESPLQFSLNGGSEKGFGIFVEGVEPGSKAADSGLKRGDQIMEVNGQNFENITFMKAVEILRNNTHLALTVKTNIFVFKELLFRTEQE

[14] = biological target: MAGI2_3, Q86UL8
MAGI2_3, Q86UL8, sequence (Q86UL8 600-682): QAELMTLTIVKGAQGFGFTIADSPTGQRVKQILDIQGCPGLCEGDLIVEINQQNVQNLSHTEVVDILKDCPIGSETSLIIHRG

[15] = biological target: Inadl_2, Q8NI35
Inadl_2, Q8NI35, sequence (Q8NI35 238-335): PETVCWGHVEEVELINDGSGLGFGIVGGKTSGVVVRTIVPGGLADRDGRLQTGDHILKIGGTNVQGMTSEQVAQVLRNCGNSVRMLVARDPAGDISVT

[16] = biological target: PARD3_3, Q8TEW0
PARD3_3, Q8TEW0, sequence (Q8TEW0 582-685): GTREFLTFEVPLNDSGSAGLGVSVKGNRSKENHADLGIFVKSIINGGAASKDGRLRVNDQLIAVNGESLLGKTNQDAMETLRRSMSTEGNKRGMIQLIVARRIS

[17] = biological target: T7, ARHGEF11, O15085
T7 sequence (O15085 42-136, limits assumed, looked up): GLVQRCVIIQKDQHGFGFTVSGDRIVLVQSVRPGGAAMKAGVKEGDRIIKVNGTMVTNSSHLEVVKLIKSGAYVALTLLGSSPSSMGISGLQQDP

[18] = biological target: IL16_1, Q14005
IL16_1, Q14005, sequence (Q14005 210-306): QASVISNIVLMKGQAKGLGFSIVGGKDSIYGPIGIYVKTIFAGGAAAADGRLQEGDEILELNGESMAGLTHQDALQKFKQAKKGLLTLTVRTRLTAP

[19] = biological target: T8, DVL3, Q92997
T8 sequence (Q92997 244-331, limits assumed, looked up): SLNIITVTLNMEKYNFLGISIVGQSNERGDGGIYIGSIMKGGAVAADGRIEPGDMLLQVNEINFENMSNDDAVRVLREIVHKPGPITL

[20] = biological target: FRMPD2_2, Q68DX3
FRMPD2_2, Q68DX3, sequence (Q68DX3 944-1038): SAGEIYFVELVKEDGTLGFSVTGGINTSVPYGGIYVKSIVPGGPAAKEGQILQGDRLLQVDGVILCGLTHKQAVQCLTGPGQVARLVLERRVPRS

[21] = biological target: T9, GRIP1_3, Q9Y3R0
T9 sequence (Q9Y3R0 247-346, limits assumed, looked up): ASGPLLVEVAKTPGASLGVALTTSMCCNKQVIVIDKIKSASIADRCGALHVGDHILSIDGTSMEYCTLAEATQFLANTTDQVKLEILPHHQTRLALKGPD

[22] = biological target: HTRA1, Q92743
HTRA1, Q92743, sequence (Q92743 360-477): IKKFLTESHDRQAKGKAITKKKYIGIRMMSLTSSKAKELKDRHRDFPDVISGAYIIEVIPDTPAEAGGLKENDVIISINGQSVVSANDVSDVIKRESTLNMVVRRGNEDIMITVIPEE

[23] = biological target: T10, LIN7C, Q9NUP9
T10 sequence (Q9NUP9 88-185, limits assumed, looked up): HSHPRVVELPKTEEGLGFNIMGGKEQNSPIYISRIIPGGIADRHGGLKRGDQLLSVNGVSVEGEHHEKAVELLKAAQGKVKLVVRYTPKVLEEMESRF

[24] = biological target: Inadl_8, Q8NI35
Inadl_8, Q8NI35, sequence (Q8NI35 1425-1530): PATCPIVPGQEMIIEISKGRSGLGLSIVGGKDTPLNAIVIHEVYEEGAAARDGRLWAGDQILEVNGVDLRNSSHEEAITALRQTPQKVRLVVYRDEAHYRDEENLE

[25] = biological target: T11, DFNB31_1, Q9P202
T11 sequence (Q9P202 135-233, limits assumed, looked up): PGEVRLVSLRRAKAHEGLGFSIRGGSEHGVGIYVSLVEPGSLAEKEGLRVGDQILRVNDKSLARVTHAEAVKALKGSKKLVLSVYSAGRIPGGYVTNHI

[26] = biological target: DLG1_1, Q12959
[27] = biological target: DLG4_2, P78352
DLG4_2, P78352, sequence (P78352 155-259): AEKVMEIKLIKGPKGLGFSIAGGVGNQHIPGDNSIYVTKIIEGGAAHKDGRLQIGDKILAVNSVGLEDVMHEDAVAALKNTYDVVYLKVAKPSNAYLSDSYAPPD

[28] = plain residues with an end cap or a label only (N-terminal biotin on a linker: ttds)
[29] = plain residues with an end cap or a label only (N-terminal biotin on a linker: ahx)

DLG2_2, Q15700, sequence (Q15700 189-283): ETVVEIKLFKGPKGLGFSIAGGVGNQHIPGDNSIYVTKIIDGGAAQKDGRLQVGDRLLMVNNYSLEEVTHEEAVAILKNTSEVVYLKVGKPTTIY

pKd [1, 28]: 4.28 | pKd [2, 28]: 4.29 | pKd [3, 28]: 3.92 | pKd [4, 28]: below the threshold | pKd [5, 28]: below the threshold | pKd [6, 28]: below the threshold | pKd [7, 28]: 4.57 | pKd [8, 28]: below the threshold | pKd [9, 28]: 3.76 | pKd [10, 28]: 4.32 | pKd [11, 28]: below the threshold | pKd [12, 28]: below the threshold | pKd [13, 28]: below the threshold | pKd [14, 28]: below the threshold | pKd [15, 28]: below the threshold | pKd [16, 28]: below the threshold | pKd [17, 28]: below the threshold | pKd [18, 28]: below the threshold | pKd [19, 28]: below the threshold | pKd [20, 28]: 3.31 | pKd [21, 28]: below the threshold | pKd [22, 28]: below the threshold | pKd [23, 28]: 3.9 | pKd [24, 28]: below the threshold | pKd [25, 28]: 4.35 | pKd [26, 28]: 3.79 | pKd [27, 28]: 4.58
Binder: PSRDRKETSI [RALBP1, Q15311]

pKd [1, 29]: below the threshold | pKd [2, 29]: below the threshold | pKd [3, 29]: below the threshold | pKd [4, 29]: below the threshold | pKd [5, 29]: 4.62 | pKd [6, 29]: below the threshold | pKd [7, 29]: below the threshold | pKd [8, 29]: below the threshold | pKd [9, 29]: below the threshold | pKd [10, 29]: below the threshold | pKd [11, 29]: below the threshold | pKd [12, 29]: below the threshold | pKd [13, 29]: below the threshold | pKd [14, 29]: below the threshold | pKd [15, 29]: 5.4 | pKd [16, 29]: 5.32 | pKd [17, 29]: below the threshold | pKd [18, 29]: below the threshold | pKd [19, 29]: 4.9 | pKd [20, 29]: below the threshold | pKd [21, 29]: below the threshold | pKd [22, 29]: 4.72 | pKd [23, 29]: below the threshold | pKd [24, 29]: below the threshold | pKd [25, 29]: below the threshold | pKd [26, 29]: below the threshold | pKd [27, 29]: below the threshold
Binder: VNENQKEYFF [CNTNAP4, Q9C0A0]

pKd [1, 29]: 3.56 | pKd [2, 29]: 3.88 | pKd [3, 29]: 4.09 | pKd [4, 29]: below the threshold | pKd [5, 29]: below the threshold | pKd [6, 29]: below the threshold | pKd [7, 29]: below the threshold | pKd [8, 29]: below the threshold | pKd [9, 29]: below the threshold | pKd [10, 29]: 3.5 | pKd [11, 29]: below the threshold | pKd [12, 29]: below the threshold | pKd [13, 29]: below the threshold | pKd [14, 29]: below the threshold | pKd [15, 29]: below the threshold | pKd [16, 29]: 3.73 | pKd [17, 29]: 3.75 | pKd [18, 29]: below the threshold | pKd [19, 29]: below the threshold | pKd [20, 29]: below the threshold | pKd [21, 29]: below the threshold | pKd [22, 29]: 3.51 | pKd [23, 29]: below the threshold | pKd [24, 29]: 3.88 | pKd [25, 29]: 3.66 | pKd [26, 29]: 4.26 | pKd [27, 29]: 4.7
Binder: HSATSVHTSV [MTMR1, Q13613]

— publication PMC9482650, “Quantitative fragmentomics allow affinity mapping of interactomes” (Nature Communications, 2022)
